# Experimental data reported in US20140243256A1 (ADMINISTRATORS OF THE TULANE EDUCATIONAL FUND, published 2014).
# B1: TAMRA-conjugated Peptide 1 (peptide)
# peptide: LNLFKKTINGLISDSLVIR
# modifications: TAMRA conjugated (position of the dye not stated)
# notes: also called TAMRA-peptide
# Target: T1, Pichinde virus (PICV) glycoprotein spikes on purified virus (Pichinde virus (CoAn 3739), UniProt P03540 59-273; P03540 2-58)
# T1 construct: also called monomeric or oligomeric glycoproteins; GPC
# T1 sequence 1: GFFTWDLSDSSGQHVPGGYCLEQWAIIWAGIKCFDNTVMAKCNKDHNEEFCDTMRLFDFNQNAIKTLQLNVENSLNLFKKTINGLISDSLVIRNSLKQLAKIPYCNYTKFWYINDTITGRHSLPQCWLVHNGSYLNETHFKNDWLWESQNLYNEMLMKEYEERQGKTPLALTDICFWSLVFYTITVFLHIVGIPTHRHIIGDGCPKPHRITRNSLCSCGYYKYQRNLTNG
# T1 sequence 2: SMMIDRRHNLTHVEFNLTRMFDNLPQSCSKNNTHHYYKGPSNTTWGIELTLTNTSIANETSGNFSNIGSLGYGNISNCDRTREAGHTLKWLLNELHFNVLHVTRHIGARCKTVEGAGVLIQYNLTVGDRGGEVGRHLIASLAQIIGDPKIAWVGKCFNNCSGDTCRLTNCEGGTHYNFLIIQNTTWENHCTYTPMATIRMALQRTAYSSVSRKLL
# T1 sequence 3: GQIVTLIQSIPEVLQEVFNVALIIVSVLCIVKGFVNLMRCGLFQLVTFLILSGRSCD
# Experiment: glutaraldehyde crosslinking of PICV with peptide
binder,measurement,value
B1,binding result,no binding
